These results are taken from the RNAGym collection of RNA variant scans (doi:10.1073/pnas.2313332121).

B1: TPR t1 (parent)
chain: GACCAAUCUGCCCUCAGAGCUCGAGAACAUCUUCGGAUGCAGAGGAGGCAGGCUUCGGUGGCGCGAUAGCGCCAACGUCCUCAACCUCCAAUGCAUCCCACCACAUGAUGAUGCCUGAAGAGCCUUGGUUUUUUG

The variants in this data set derive from B1. The experiment in a line: polymerase ribozyme fitness, log enrichment relative to wild type (log ratio); higher = more active; in vitro selection for triplet polymerase activity. The essentials: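 Mutant libraries of each subunit of a heterodimeric triplet polymerase ribozyme were built by PCR and transcribed. Each library went through one round of in vitro selection in triplicate: annealing with biotinylated primer, partner subunit and triplets, frozen incubation at −7 °C, gel excision of extended constructs, streptavidin-bead capture and RT-PCR. Input and output libraries were Illumina-sequenced; only genotypes with ≥10 input reads and ≥1 read per output were kept. Fitness is log2(genotype enrichment/wild-type enrichment), using inverse-variance-weighted replicate averages.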
Turning to U9G G77U C123U, the “polymerase ribozyme fitness (log ratio)” value came out at 1.93.
The figure for C8A G63U G77C G117C is -4.17.
The value for G42U U130A was -1.76; that for A41G G61U A84G U96G C97U was -6.44; that for G52A C72U was -0.913.
The value for G39U C49G A118U was -0.724; that for G57U G135U was -0.352; that for C13G C79A G113A was -3.53.
On to A74G C98G, for which the “polymerase ribozyme fitness (log ratio)” value is -6.09.
Turning to A43U A111G, the “polymerase ribozyme fitness (log ratio)” value was -0.575.
Take U9A G60A C70A C98U C101G C123G: the “polymerase ribozyme fitness (log ratio)” value was -6.71.
Take C72A U129A: the “polymerase ribozyme fitness (log ratio)” value is -1.32.
The figure for C13G C49U G51A U125A is -4.36; for C56G U106A it is -0.921; for G39C A66U A75G C88G C123U it is -3.46.
The figure for U30G C64U A121G is -4; for C8U C11U A50U it is -1.25.
The value for G23U A121C was -3.5.
In the case of U54G C89U, the “polymerase ribozyme fitness (log ratio)” value was -0.559.
The value for G47U C89U G122A was -4.51; that for C28U A41C C53G was -3.32.
As to C62A A74C, the “polymerase ribozyme fitness (log ratio)” value was -2.68.
The figure for U9G U14A is -0.133; for C3U A41C U125A U126C it is -3.37; for G71A G117C it is -3.15.
The value for C94A A105C was -4.8; that for A2G U9G U106G U112C U130A was -0.197; that for C4U C56A was -0.607.
The value for C20U U33G U59A G107U G110C was -6.84; that for U59C U87A U112C was 0.815; that for C34A C56G G117A was -5.64.
For G10C A27C U55C C70U, the “polymerase ribozyme fitness (log ratio)” value was -7.04.
The value for C3U U14A C53G C64U G120A was 0.544.
The value for A68G was -2.44.
The figure for U54A C98G U112C is -3.86.
For C56U G61U, the “polymerase ribozyme fitness (log ratio)” value is -2.88.
The figure for C82A C94U is -0.596; for C28U G47U C97U C101U A103G G117C it is -7.85; for C62A C104A A119U it is -3.63.
The value for C73G C94A was -2.58; that for A37G C49G A111U U126G was -6.22.
The value for C88U G113U was -3.09; that for G63U G122A was -2.28.
For G63A C79U, the “polymerase ribozyme fitness (log ratio)” value was -1.07.
The value for G44U C82G was -1.77; that for A16G G44U G117A was -3.84; that for C12U A16C G42U U78A A121C was -0.175.
U9G C34G A121U: the “polymerase ribozyme fitness (log ratio)” value was -4.18.
The value for A75G U129C was -0.465; that for A6G C8A U125A was 0.146; that for U130A U133A was -1.4.
The figure for A50U U59A G60C C80G C88U C123U is -1.82; for G93A U116C it is -1.68.
The value for A68G G71A A95C was -6.02; that for C79U C98A was -4.92; that for C56U C98U was -0.841.
Consider C8A C88A, for which the “polymerase ribozyme fitness (log ratio)” value was determined as 0.0973.
The value for G69U U125A was -0.179; that for U9C U38G G61C C101A was -3.61.
The figure for C72A G120A is 1.06.
As for A2G C114A C124A, the “polymerase ribozyme fitness (log ratio)” value was -0.647.
The value for C15G C124U was -0.148; that for G36C C72A G122A was -1.22; that for C11G A18U G48U C49U G61A was -3.32.
Regarding C12U C13U A18U C20G, the “polymerase ribozyme fitness (log ratio)” value is -4.78.
The figure for G10A G19U G61U is -4.88; for G10A C88G A111C it is -0.763; for C13A A90U it is -3.48.
The value for U9G A26G C70G A84U U112A was -4.4; that for C72U U112A was 0.821.
The value for C31U U81C G120U was -6.22.
Turning to A46G C70G C94U, the “polymerase ribozyme fitness (log ratio)” value was -3.9.
The value for A41G G69U G93C was -0.214; that for A6U G113C was -2.6; that for C99A C123A was -5.64.
As to A46U U125A, the “polymerase ribozyme fitness (log ratio)” value was -1.67.
The value for U30G C34G C56A U109A A111C G117U U131C U132C was -6.83; that for C104A U134G was -1.17.
The value for A5U C53U was -0.883; that for C11U G69C was -1.87.
The value for C15A A46C was -3.02; that for G47U U78C was -1.44.
Turning to C56U C86G C104U, the “polymerase ribozyme fitness (log ratio)” value was -0.849.
For G47U A121C C123A G128A, the “polymerase ribozyme fitness (log ratio)” value was -2.3.
C72U C85U C104G U112A G122U U133G: the “polymerase ribozyme fitness (log ratio)” value is -6.97.
The figure for C11U C34G C89U A105C U106A is -4.08; for C8A C114U U126C it is -2.4.
The figure for A18U C34U G61C A74C A100C G107U G110C is -7.86; for G17U C73G C124G G128C it is -2.67.
In the case of A5U G47U A121U C124U, the “polymerase ribozyme fitness (log ratio)” value worked out at 0.495.
The value for U9A A16U G63C U132A was -0.608; that for G19C C72G was -3.09.
The value for U7G A27U G48A U112A was -1.8; that for A27U A105U was -4.58.
The figure for U33G G52C C56A G61A C79U A91G C123G U131G is -7.1; for G35C A95U C99U C104A A111C it is -6.57; for C11U C28G A83C C85U it is -4.39.
On to C28U A108G, for which the “polymerase ribozyme fitness (log ratio)” value is -4.76.
The figure for U14A C82A C98G G110C is -7.59; for A6U G45U G52C C72U G122A it is -2.56; for C8U G69U it is 0.891.
Consider C22U A24U G57U C82U C115A, for which the “polymerase ribozyme fitness (log ratio)” value was -6.34.
In the case of A100C C102A, the “polymerase ribozyme fitness (log ratio)” value was -2.98.
The value for C15U G39C A66U G69C A75U was -3.53; that for C11G C13U C104A A111U was -3.99.
The value for C40G C88G U125G was -6.8; that for G48U G58A G122A was -1.21.
As to G45U A46U U106G, the “polymerase ribozyme fitness (log ratio)” value is -3.7.
As for C62A A90G, the “polymerase ribozyme fitness (log ratio)” value is -0.841.
Take G45A A46C G58U G61U C85A: the “polymerase ribozyme fitness (log ratio)” value is -4.13.
C73U G93C C124U U125C: the “polymerase ribozyme fitness (log ratio)” value is -1.39.
The figure for G63A C82G is -1.41.
The value for U9A C73U G113A was -0.0138; that for C15U U33G G61U U87A U112C was -4.85; that for A46C C62U U106G was -2.88.
The value for G36C G58C C101G A111U was -5; that for A41U G45U U78C was -2.76; that for U30A G48C G63U C124A was -5.12.
For the variant C3U G110U, the “polymerase ribozyme fitness (log ratio)” value is -1.54.
Turning to A16U G45A G61U C82G, the “polymerase ribozyme fitness (log ratio)” value was -1.81.
As to C49U A68G A84C U131A, the “polymerase ribozyme fitness (log ratio)” value was -4.91.
The value for U81G C94U A121G was -2.71; that for C3G G93U C98U G128C was -2.57; that for C11U U129A was -2.36.
For A6G C8G C11U C22U C79U, the “polymerase ribozyme fitness (log ratio)” value is -3.56.
The figure for A50C C124A is 0.557; for C20A C40G it is -4.64.
The figure for C13U G45A is -0.438; for C72A A118C it is -2.72; for C101U A111C U116G it is -2.46.
On to A27U C40A C70A, for which the “polymerase ribozyme fitness (log ratio)” value was -6.74.
The value for G42C G47U was -4.02; that for A26G G60U C97U was -2.92; that for C40A C73U was -1.17.
As for U59C A83C C101G C115U U116A, the “polymerase ribozyme fitness (log ratio)” value is -5.84.
The value for G48C C79U G128C was -4.29.
C40U A50U: the “polymerase ribozyme fitness (log ratio)” value was -4.47.
The value for A6U C15A A37C C40G C80U U96G was -2.51.
The figure for C70A G128A is -3.64; for U14G C72U it is -1.52; for A66U U78C C123U it is -0.156.
The value for C40A G69C C85G G110U U112C was -6.63.
As for G17C G120A, the “polymerase ribozyme fitness (log ratio)” value is -3.31.
The figure for C13A A18G is -3.1; for U7A G10U C64G G93A it is -6.26.
The figure for C104U U106A U109A C114U C123U is -6.98; for C8U G44C A83U it is -0.336; for C34U C123U it is -2.86.
In the case of G44A G48C A74U, the “polymerase ribozyme fitness (log ratio)” value was -2.22.
The figure for C56A G60A U116G G135A is -3.36; for A6C C40A C53G C99U U109A U112G it is -5.56.
The value for G47U C70U was -1.87.
With C97G C123A, the “polymerase ribozyme fitness (log ratio)” value was -4.41.
The figure for C40G A46C G51U C62U U87G C115G is -6.61.
With C72G C85U C86U, the “polymerase ribozyme fitness (log ratio)” value is -2.99.
The figure for A26U C53U C72U U116G is -6.07; for G60A G135C it is 0.136; for C82G C97A C124A U125G it is -5.83.
Take A43C G47A C115U U116C: the “polymerase ribozyme fitness (log ratio)” value was -3.25.
The value for C22G G51A G61U U112G was -5.05; that for C13G A18G was -5.42; that for U7A C13U A41U C82A G127A was -2.71.
The figure for A43G G77A A83C C88G A121U G128U is -5.57; for G60A U81A it is -1.44.
The value for A37C G93A was -0.971.
As to C49A A68G A90U, the “polymerase ribozyme fitness (log ratio)” value was -6.08.
The value for G19U A43U G47U U112A G120A was -2.08.
